Patent US20210238262A1 (HENRY M JACKSON FOUNDATION FOR THE ADVANCEMENT OF MILITARY …, published 2021)

B1: rhMZ124-D (antibody, V domains shown)
VH: QVQLQESGPGLVKPSETLSLTCAVSGDSISSGYYWGWIRQSPGRGLESFGFISGSGGTTYYNPSLKTRVTISKDTSKNQFSLKLSSVTAADTAVYYCARLGHPRGIAAGGVDYWGQGVLVTVSS
VL: QSALTQPPSLSASPGASARLPCTLSSDFSVGNKNMYWYQQKPGSAPGLFLYFYSDSDNQLGPGVPNRVSGSKEASSNTAFLLISGLQPEDEADYYCQVYDRAANILFGGGTRLTVLG
B2: rhMZ133-C (antibody, V domains shown)
VH: EVQLVESGGGLVQPGGSLRLSCAASGFTFSDYYMSWVRQAPGKGPEWVGFIRNKANGGTAEYAASVKGRFTVSRDDSKSIASLQMNSLKTEDTAVYYCAKHYCTGSGCYGAGLDSWGQGVVVTVSS
VL: QSVLTQPPSVSKSLGQSVTISCTGTSSDIGGSNDVSWYQQHPGTAPRLLIYNVSKRPSGVSDRFSGSKSGNTASLTISGLQAEDEADYYCCSYRSGSTLFGGGTRLTVLG
B3: rhMZ134-B (antibody, V domains shown)
VH: EVQLVESGGGLAKPGGSLRLSCAASGFTFSDYYMDWVRQAPGKGLEWVSRISNGGGSTWYADSVKGRFTISRENAKNTLYLQMNSLRAEDTAVYYCARGPEYCSSTYCSSAYCTGSGCYVDYGLDSWGQGVVVTVSS
VL: SYELTQPPSVSVSPGQMARITCGGDNIGSKNVQWYQQKPAQAPVLVIYADSERPSGIPERFSGSNSGNTATLTISGVEAGDEADYYCQVWDSSSDHVLFGGGTRLTVLG
B4: rhMZ121-A (antibody, V domains shown)
VH: QVQLQESGPGLVKPSETLSLTCAVSGYSISSGYYWGWIRQPPGKGLEYIGYISGSSGSTYYNPSLKSRVTISKDTSKNQFSLKLSSVTAADTAVYYCARGNYYSGSYYLFWGQGVLVTVSS
VL: SYELTQPPSVSVSPGQTARITCGGDNLGSKYVHWYQQKPAQAPVLVIYYDSDRPSGIPERFSGSKSGNTATLTISGVEAGDEADYYCQVWDSSSDHWVFGGGTRLTVLG
B5: MZ54 (antibody, V domains shown)
VH: EVQLVESGGGLVKPGGSLRLSCSASGFNFRDFYMGWVRQAPGKGLQWVSHIGDSGGAIYYTDSVEGRFSISRDNAKNSLYLQMNSLRVEDTAIYYCVCAGGGRTDYWGQGTLVTVSS
VL: DIVMTQSPSSLSASVGDRVTITCQATQDINIYLNWYQQKPGQAPKLLIYDASRLETGVPSRFSGRGSGTDFTFTISSLQPEDFGTYYCQHYYTVPRTFGQGTKVESRR
B6: rhMZ100-C (antibody, V domains shown)
VH: EVQLVESGGGLVQPGGSLRLSCAASGFTFSSDGMSWVRQAPGKGLEWVSYISSGGATTYYADSVKGRFTISRDNSKNTLSLQMNSLRGEDTAVYYCAKDITAPGRNGLDSWGQGVVVTVSS
VL: QSVLTQPPSLSASPGASARLPCTLSSDLNVGTKNMYWYQQKPGSAPRLFLYYYSDSDKQLGPGVPNRVSGSKETSSNTAFLLISGLQPEDEADYYCQVYDNSARVFGGGTRLTVLG
B7: MZ4 (antibody, V domains shown)
VH: QVHLQESGPGLVRPSETLSLTCTVSDGSISSYYWSWIRQPPGKGLEWIGSIYYTGSTNYNPSLKSRVTMSVDTSKNQFSLRLNSVTAADTAMYYCAGLDRYSWNEGGDHWGQGILVSVSS
VL: QPVLTQPPSASGTPGQRVSISCSGSRSNLGKNTVNWYQQLPGTAPKLLIYNHSRRPSGVPERFSGSKSGTSASLAISGLQSEDEADYFCAAWDDSLNGLYVFGTGTKVTVLR
notes: also called MHRP ZIKV-1004
B8: MZ1 (antibody, V domains shown)
VH: QVQLQESGPGLVKSSETLSLSCTVSGASISNFYWSWVRQPPGKGLEWMGSIYYTGTITYNPSLKSRLTMSVDTSKNQFSLKLNSVTAADTAVYSCAGLDRFNWNDEGDCWGQGTLVTVFS
VL: QSVLTQPPSASGTPGQRVTISCSGSRSNLGRNTVNWYQQLPGVAPKLLIYSNNRRPSGVPDRFSGSKSDTSASLAISGLQSEDEADYFCAAWDDSLNGLYVFGTGTKVTVLG
B9: rhMZ123-A (antibody, V domains shown)
VH: QLVQSGAEVKRPGESLRISCKTSGYSFTSYWISWVRQMPGKGLEWMGMIYPGDSDTRYSPSFQGQVTISADKSISTAYLQWSSLKASDTATYYCAKVDSSGWTNYFDYWGQGVLVTVSS
VL: QSALTQPPSVSKSLGQSVTISCTGTSSDIGGYNGVSWYQQHSGTAPRLLIYDVSKRPSGVSDRFSGSKSGNTASLTISGLQAEDEADYYCCSYRSGSTYIFGAGTRLTVLG
B10: rhMZ103-A (antibody, V domains shown)
VH: QVQLQESGPGLVKPSETLSLTCAVSGGSISGGYDWSWIRQPPGKGLEWIGYIYGSSGSTNYNPSLKNRVTISKDTSKNQFSLKLSSVTAADTAVYYCARPAYYEDDYGYYYTTPIFDYWGQGVLVTVSS
VL: QSVLTQPPSASGAPGQSVTISCSGSSSNIGSNYVYWYQQLPGTAPKLLIYYSNQRPSGVPDRFSGSKSGTSASLAITGLRSEDEADYYCAAWDNSLSSVLFGGGTRLTVLG
B11: MZ20 (antibody, V domains shown)
VH: EVQVVESGGGLVKPGGSLRLSCAASGFTFSHFYMTWIRQAPGKGLESISYIGGTGSPTYYADSVVGRFTISRDNAKNSVYLEMNSLRAEDTAIYYCVRAGGARIENWGQGTLVIVSS
VL: DIVMTQSPSSLSASVGDRVTITCQASHDINIYLNWYQQRPGKAPKLLIYDASRLETGVPSRFSGTGSGTDFTFTISNLQPEDFATYFCQHYYTLPRTFGQGTKVDIKR
B12: MZ56 (antibody, V domains shown)
VH: EVQLVESGGDLVQPGGSLRLSCAASGFTFSNYAMHWVRQAPGKGLESVSAIGSNGDSIFYASSVKGRFTISRDNSKNTLYLQMGSLRADDMAVYFCARGWYYYDSRAYWYFDLWGRGTLVTVSS
VL: QPVLTQPASVSGSPGQSITISCTGTTSDVDDYNHVSWYQQYPGKAPRVMLYDVTKRPSGVPDRFSGSKSGNTASLTISGLQSEDEADYYCCSFADSHAIFGGGTKVTVLG
B13: rhMZ119-D (antibody, V domains shown)
VH: EVQLVQSGAEVKRPGESLKISCKTSGYSFTSYWISWVRQMPGKGLEWMGAIDPSDSDTRYSPSFQGQVTISADKSISTAYLQWSSLKASDSATYYCAKEGIAARSLDVWGRGVLVTVSS
VL: SYELTQPPSVSVSPGQTARITCSGDALPKKYAYWFQQKPGQSPVLIIYEDSKRPSGIPERFSGSSSGTVATLTISGAQVEDEADYYCYSTDSSGYHGLFGGGTRLTVLG
B14: rhMZ107-B (antibody, V domains shown)
VH: QVQLQESGPGLVKPSETLSLTCAVSGYSISSGYYWGWIRQPPGKGLEYIGYISGSSGSTYYNPSLKSRVTISKDTSKNQFSLKLSSVTAADTAVYYCARRDRVGSYPYYYGLDSWGQGVLVTVSS
VL: QSVLTQPPSLSASPGASARLPCTLSSDLSVGSKNMYWYQQKPGSAPRLFLYYYSDSDKQLGPGVPNRVSGSKETSSNTAFLLISGLQPEDEADYYCQVYDGSANDVFGSGTKLTVLG
B15: rhMZ101-B (antibody, V domains shown)
VH: EVQLVESGGGLAKPGGSLRLSCAASGFSFSDYYMYWVRQAPGKGLEWVSGISYTGGSTYYADSVKGRFTISRENAKNTLYLQMDSLRAEDTAVYYCARVLYSGSYYYFDYWGQGVLVTVSS
VL: QSVLTQPPSLSASPGASARLPCTLSSDLSVGSKNMYWYQQKPGSAPRLFLYYYSDSDKQLGPGVPNRVSGSKETSSNTAFLVISGLQPEDEADYYCQVYDSSANIVFGSGTKLTVLG
B16: rhMZ104-D (antibody, V domains shown)
VH: EVQLVESGGGLAKPGGSLRLSCAASGFTFSDYYMDWVRQAPGKGLEWVSRISNGGGSTWYADSVKGRFTISRENAKNTLYLQMNSLRAEDTAVYYCARERYCSGGVCYAGTKYFDYWGQGVLVTVSS
VL: QPVLTQPPSLSASPGASARLPCTLSSDLSVGSKNMYWYQQKPGSAPRLFLYYYSDSDKQLGPGVPNRVSGSKETSSNTAFLLISGLQPEDEADYYCQVYDSSANWVFGGGTRLTVLG

What was measured:
[1] = target: T1, Recombinant DENV-2 sE (1-396) from strain 16681-PDK53 with C-terminal AviTag and poly-histidine tags (Dengue virus serotype 2 strain …, UniProt P29991 281-676, biotinylated on the AviTag for BLI); assay: BLI and ELISA on DENV-2 E glycoprotein
T1 construct: Produced in Expi293F cells; biotinylated for BLI; also called DENV-2 E

[2] = target: ZIKV H/PF/2013 reporter virus particle with E mutant (D67N, A69T) (Zika virus strain H/PF/2013); assay: cell-based or functional assay
[3] = target: Whole purified ZIKV (ZIKV/Brazil/2015) virions (Zika virus, ZIKV/Brazil/2015); assay: cell-based or functional assay
[4] = target: ZIKV PR (Puerto Rican strain, PRVABC59) virus (Zika virus strain PRVABC59); assay: cell-based or functional assay
[5] = target: T1, Recombinant DENV-2 sE (1-396) from …; assay: ELISA on DENV-2 E
[6] = target: DENV-2 (S16803) virus (Dengue virus serotype 2 strain S16803); assay: cell-based or functional assay

Binder | binding result [1] | binding result [5] | further results
B1 | no binding | – | –
B2 | no binding | – | neutralization in the reporter virus particle (RVP) assay, mutant against wild-type ZIKV H/PF/2013 [2]: 2 fold
B3 | no binding | – | FlowNT50 neutralization, U937-DC-SIGN cells, IC50 [3]: 0.022 µg/mL; micro-neutralization (MN50) in Vero cells, IC50 [4]: 0.0038 µg/mL; neutralization in the reporter virus particle (RVP) assay, mutant against wild-type ZIKV H/PF/2013 [2]: 10 fold
B4 | no binding | – | –
B5 | – | binds | –
B6 | no binding | – | FlowNT50 neutralization, IC50 [3]: 1 to 3 µg/mL
B7 | – | binds | flow-based neutralization assay using human monocytes (FlowNT), IC50 [3]: 0.0083 µg/mL; flow-based neutralization assay using human monocytes (FlowNT), IC50 [6]: 0.0209 µg/mL
B8 | – | binds | –
B9 | no binding | – | –
B10 | no binding | – | FlowNT50 neutralization, IC50 [3]: 1 to 3 µg/mL; neutralization in the reporter virus particle (RVP) assay, mutant against wild-type ZIKV H/PF/2013 [2]: 5 fold
B11 | – | binds | –
B12 | – | binds | –
B13 | no binding | – | FlowNT50 neutralization, U937-DC-SIGN cells, IC50 [3]: 0.031 µg/mL
B14 | no binding | – | FlowNT50 neutralization, IC50 [3]: 1 to 3 µg/mL
B15 | no binding | – | –
B16 | no binding | – | –
